Patent US20190375786A1, “STABLE PEPTIDES AND METHODS OF USE THEREOF” (Fred Hutchinson Cancer Research Center, priority 2016, published 2019)

What was measured:
[1] = Resistance to elevated temperature, HPLC; format: physicochemical; details: HPLC peak vs untreated peptide; for Resistance to Temperature (75° C.): 75° C. for one hour; for Resistance to Temperature (100° C.): 100° C. for one hour; for Resistance to Temperature (70° C.): 70° C. for one hour
Outline: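 Peptides were incubated at room temperature, 70° C or 100° C for one hour in ddH2O; another protocol used 70° C, 75° C or 100° C for one hour in 0.5 mM PBS, then pelleting and analysis of the supernatant. Remaining peptide was measured by C-18 RP-HPLC, 5–45% acetonitrile/0.1% TFA over 10 min.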

pepsin = pepsin (Sus scrofa, UniProt P00791); test: Pepsin digestion resistance in simulated gastric fluid, RP-HPLC; format: in vitro ADME, porcine; parameters: purchased Sigma Aldrich P7012; details: 500 U/ml pepsin in SGF pH 1.05, 30 minutes at 37.5° C.; HPLC peak vs untreated peptide
Outline: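 Peptide (12.5 μg) incubated 30 min at 37.5 °C with or without 500 U/ml pepsin in simulated gastric fluid (pH 1.05; 2% NaCl in 0.7% HCl); some reactions quenched with 100 mM Tris and 10 mM DTT. Intact peptide followed by C-18 RP-HPLC (5–45% acetonitrile/0.1% TFA over 10 min) at 214 and 280 nm.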

[2] = Resistance to reduction by DTT, RP-HPLC; format: physicochemical; details: 10 mM DTT in PBS, room temperature, 30 minutes; HPLC peak vs untreated peptide
Outline: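 Peptide (12.5 μg from a 2 mg/ml stock, or 0.015 mM final in PBS) was held 30 min at room temperature with or without 10 mM DTT. Reduced and non-reduced forms were compared by C-18 RP-HPLC using a 5–45% acetonitrile/0.1% TFA gradient over 10 min, with detection at 214 and 280 nm.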

trypsin = trypsin (Sus scrofa, UniProt P00761); test: Trypsin digestion resistance of soluble peptide, RP-HPLC; format: in vitro ADME, porcine; parameters: purchased Sigma Aldrich 6567; details: 500 U/ml trypsin, 30 minutes at 37.5° C.; HPLC peak vs untreated peptide
Outline: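 12.5 μg soluble peptide digested with 500 U/ml porcine trypsin in PBS, 30 min at 37.5° C; quenched with soybean trypsin inhibitor, with or without 10 mM DTT reduction afterwards. Intact peptide assessed by C-18 RP-HPLC, 5-45% acetonitrile/0.1% TFA gradient over 10 min.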

Chain of trypsin (P00761 9-231): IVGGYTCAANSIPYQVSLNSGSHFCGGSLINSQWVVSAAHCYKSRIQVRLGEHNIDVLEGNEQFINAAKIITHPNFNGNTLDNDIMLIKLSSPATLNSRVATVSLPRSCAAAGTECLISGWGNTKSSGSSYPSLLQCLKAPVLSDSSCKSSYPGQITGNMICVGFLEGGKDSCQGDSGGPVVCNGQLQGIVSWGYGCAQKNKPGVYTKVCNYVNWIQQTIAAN
Chain of pepsin (P00791 60-385): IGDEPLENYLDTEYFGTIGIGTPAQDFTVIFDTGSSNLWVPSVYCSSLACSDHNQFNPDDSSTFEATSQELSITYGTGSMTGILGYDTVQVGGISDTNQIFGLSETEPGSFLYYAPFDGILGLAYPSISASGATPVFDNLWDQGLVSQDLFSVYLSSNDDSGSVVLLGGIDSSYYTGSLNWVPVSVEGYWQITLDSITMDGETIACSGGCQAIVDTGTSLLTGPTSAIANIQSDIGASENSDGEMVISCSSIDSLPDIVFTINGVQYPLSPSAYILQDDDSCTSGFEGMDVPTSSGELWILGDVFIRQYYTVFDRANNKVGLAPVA

Row | Substance | Resistance to Temperature (75° C.) [1] | Resistance to Temperature (100° C.) [1] | Resistance to Pepsin (500 U/ml) (pepsin) | Resistance to DTT Reduction (10 mM) [2] | Resistance to Trypsin (500 U/ml) (trypsin) | Resistance to Temperature (70° C.) [1]
1 | 16 (GSSCAKPGEMCMRIKCCDGQCGCNRGTGRCFCK) [compound 16] | High (A peptide classified as high indicates that the majority (at least 75%) of the HPLC peak of the treated peptide is still present as compared to the HPLC peak of the untreated peptide) | Low (A peptide classified as low indicates that the majority (over 75%) of the HPLC peak of the treated peptide disappeared as compared to the HPLC peak of the untreated peptide) | High (A peptide classified as high indicates that the majority (at least 75%) of the HPLC peak of the treated peptide is still present as compared to the HPLC peak of the untreated peptide) | Low (A peptide classified as low indicates that the majority (over 75%) of the HPLC peak of the treated peptide disappeared as compared to the HPLC peak of the untreated peptide) | Low (A peptide classified as low indicates that the majority (over 75%) of the HPLC peak of the treated peptide disappeared as compared to the HPLC peak of the untreated peptide) | –
2 | 34 (GSGCFGYKCDYYKGCCSGYVCSPTWKWCVRPGPGR) [compound 34] | High (A peptide classified as high indicates that the majority (at least 75%) of the HPLC peak of the treated peptide is still present as compared to the HPLC peak of the untreated peptide) | Low (A peptide classified as low indicates that the majority (over 75%) of the HPLC peak of the treated peptide disappeared as compared to the HPLC peak of the untreated peptide) | Low (A peptide classified as low indicates that the majority (over 75%) of the HPLC peak of the treated peptide disappeared as compared to the HPLC peak of the untreated peptide) | Low (A peptide classified as low indicates that the majority (over 75%) of the HPLC peak of the treated peptide disappeared as compared to the HPLC peak of the untreated peptide) | Low (A peptide classified as low indicates that the majority (over 75%) of the HPLC peak of the treated peptide disappeared as compared to the HPLC peak of the untreated peptide) | –
3 | 32 (GSSCAKPRENCNRMNILCCRGECVCPTFGDCFCYGD) [compound 32] | High (A peptide classified as high indicates that the majority (at least 75%) of the HPLC peak of the treated peptide is still present as compared to the HPLC peak of the untreated peptide) | High (A peptide classified as high indicates that the majority (at least 75%) of the HPLC peak of the treated peptide is still present as compared to the HPLC peak of the untreated peptide) | High (A peptide classified as high indicates that the majority (at least 75%) of the HPLC peak of the treated peptide is still present as compared to the HPLC peak of the untreated peptide) | Low (A peptide classified as low indicates that the majority (over 75%) of the HPLC peak of the treated peptide disappeared as compared to the HPLC peak of the untreated peptide) | Low (A peptide classified as low indicates that the majority (over 75%) of the HPLC peak of the treated peptide disappeared as compared to the HPLC peak of the untreated peptide) | High (A peptide classified as high indicates that the majority (at least 75%) of the HPLC peak of the treated peptide is still present as compared to the HPLC peak of the untreated peptide)
4 | 46 (GSDCKYKFENWGACDGGTGTKVRQGTLKKARYNAQCQETIRVTKPC) [compound 46] | High (A peptide classified as high indicates that the majority (at least 75%) of the HPLC peak of the treated peptide is still present as compared to the HPLC peak of the untreated peptide) | Low (A peptide classified as low indicates that the majority (over 75%) of the HPLC peak of the treated peptide disappeared as compared to the HPLC peak of the untreated peptide) | Low (A peptide classified as low indicates that the majority (over 75%) of the HPLC peak of the treated peptide disappeared as compared to the HPLC peak of the untreated peptide) | Low (A peptide classified as low indicates that the majority (over 75%) of the HPLC peak of the treated peptide disappeared as compared to the HPLC peak of the untreated peptide) | Low (A peptide classified as low indicates that the majority (over 75%) of the HPLC peak of the treated peptide disappeared as compared to the HPLC peak of the untreated peptide) | –
5 | 47 (GSAQEPVKGPVSTKPGSCPIILIRCAMLNPPNRCLKDTDCPGIKKCCEGSCGMACFVPQ) [compound 47] | High (A peptide classified as high indicates that the majority (at least 75%) of the HPLC peak of the treated peptide is still present as compared to the HPLC peak of the untreated peptide) | Low (A peptide classified as low indicates that the majority (over 75%) of the HPLC peak of the treated peptide disappeared as compared to the HPLC peak of the untreated peptide) | Low (A peptide classified as low indicates that the majority (over 75%) of the HPLC peak of the treated peptide disappeared as compared to the HPLC peak of the untreated peptide) | Low (A peptide classified as low indicates that the majority (over 75%) of the HPLC peak of the treated peptide disappeared as compared to the HPLC peak of the untreated peptide) | Low (A peptide classified as low indicates that the majority (over 75%) of the HPLC peak of the treated peptide disappeared as compared to the HPLC peak of the untreated peptide) | –
6 | 49 (GSSFGLCRLRRGFCARGRCRFPSIPIGRCSRFVQCCRRVW) [compound 49] | High (A peptide classified as high indicates that the majority (at least 75%) of the HPLC peak of the treated peptide is still present as compared to the HPLC peak of the untreated peptide) | Low (A peptide classified as low indicates that the majority (over 75%) of the HPLC peak of the treated peptide disappeared as compared to the HPLC peak of the untreated peptide) | High (A peptide classified as high indicates that the majority (at least 75%) of the HPLC peak of the treated peptide is still present as compared to the HPLC peak of the untreated peptide) | Low (A peptide classified as low indicates that the majority (over 75%) of the HPLC peak of the treated peptide disappeared as compared to the HPLC peak of the untreated peptide) | Low (A peptide classified as low indicates that the majority (over 75%) of the HPLC peak of the treated peptide disappeared as compared to the HPLC peak of the untreated peptide) | –
7 | 25 (GSACLAEYQKCEGSTVPCCPGLSCSAGRFRKTKLCTK) [compound 25] | High (A peptide classified as high indicates that the majority (at least 75%) of the HPLC peak of the treated peptide is still present as compared to the HPLC peak of the untreated peptide) | Low (A peptide classified as low indicates that the majority (over 75%) of the HPLC peak of the treated peptide disappeared as compared to the HPLC peak of the untreated peptide) | High (A peptide classified as high indicates that the majority (at least 75%) of the HPLC peak of the treated peptide is still present as compared to the HPLC peak of the untreated peptide) | Low (A peptide classified as low indicates that the majority (over 75%) of the HPLC peak of the treated peptide disappeared as compared to the HPLC peak of the untreated peptide) | Low (A peptide classified as low indicates that the majority (over 75%) of the HPLC peak of the treated peptide disappeared as compared to the HPLC peak of the untreated peptide) | High (A peptide classified as high indicates that the majority (at least 75%) of the HPLC peak of the treated peptide is still present as compared to the HPLC peak of the untreated peptide)
8 | 48 (GSGIGDPVTCLKSGAICHPVFCPRRYKQIGTCGLPGTKCCKKP) [compound 48] | High (A peptide classified as high indicates that the majority (at least 75%) of the HPLC peak of the treated peptide is still present as compared to the HPLC peak of the untreated peptide) | High (A peptide classified as high indicates that the majority (at least 75%) of the HPLC peak of the treated peptide is still present as compared to the HPLC peak of the untreated peptide) | High (A peptide classified as high indicates that the majority (at least 75%) of the HPLC peak of the treated peptide is still present as compared to the HPLC peak of the untreated peptide) | Low (A peptide classified as low indicates that the majority (over 75%) of the HPLC peak of the treated peptide disappeared as compared to the HPLC peak of the untreated peptide) | Low (A peptide classified as low indicates that the majority (over 75%) of the HPLC peak of the treated peptide disappeared as compared to the HPLC peak of the untreated peptide) | –
